Experimental data: paper PMC9561678

Biological target: phosphorylated JAK2 (UniProt O60674)
Assay: co-immunoprecipitation (IP p-JAK2, IB c-Mpl) with densitometry
Settings: HEK293T cells; 20 ng/mL TPO stimulation; parent: est. 1.3; read off a plot

UniProt O60674, sequence (O60674 whole entry): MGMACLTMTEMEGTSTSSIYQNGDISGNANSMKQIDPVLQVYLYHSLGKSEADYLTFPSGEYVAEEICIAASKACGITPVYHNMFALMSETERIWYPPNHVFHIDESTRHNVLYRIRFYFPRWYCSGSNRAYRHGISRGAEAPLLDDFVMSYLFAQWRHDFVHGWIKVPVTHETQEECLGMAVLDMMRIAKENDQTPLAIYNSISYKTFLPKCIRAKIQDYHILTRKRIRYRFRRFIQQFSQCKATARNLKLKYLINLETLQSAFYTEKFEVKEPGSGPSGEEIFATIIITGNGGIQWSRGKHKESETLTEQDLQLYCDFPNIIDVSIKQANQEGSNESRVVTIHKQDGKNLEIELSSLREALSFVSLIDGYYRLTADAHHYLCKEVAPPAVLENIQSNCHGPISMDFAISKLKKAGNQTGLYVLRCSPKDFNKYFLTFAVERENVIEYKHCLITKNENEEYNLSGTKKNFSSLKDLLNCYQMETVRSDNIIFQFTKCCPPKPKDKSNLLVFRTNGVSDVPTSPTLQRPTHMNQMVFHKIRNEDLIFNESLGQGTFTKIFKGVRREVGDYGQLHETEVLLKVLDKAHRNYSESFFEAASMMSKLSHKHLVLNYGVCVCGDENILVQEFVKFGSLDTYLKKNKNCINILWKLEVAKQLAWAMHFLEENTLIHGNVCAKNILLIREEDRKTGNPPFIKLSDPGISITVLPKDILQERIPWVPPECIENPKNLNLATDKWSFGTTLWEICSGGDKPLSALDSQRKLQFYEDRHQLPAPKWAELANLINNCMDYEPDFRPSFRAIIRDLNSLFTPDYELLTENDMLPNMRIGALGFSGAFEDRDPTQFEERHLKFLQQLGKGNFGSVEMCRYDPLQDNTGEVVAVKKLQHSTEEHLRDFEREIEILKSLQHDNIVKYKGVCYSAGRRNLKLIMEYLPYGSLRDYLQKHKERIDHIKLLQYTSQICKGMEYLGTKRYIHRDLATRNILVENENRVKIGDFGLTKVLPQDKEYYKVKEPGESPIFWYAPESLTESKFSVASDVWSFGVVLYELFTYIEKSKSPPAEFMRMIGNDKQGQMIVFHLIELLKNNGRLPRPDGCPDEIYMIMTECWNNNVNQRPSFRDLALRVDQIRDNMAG

response | Substance
0.54 | c-Mpl-del (c-Mpl alternative splicing isoform with a 24 amino acid deletion in the extracellular region) Y567F
0.44 | c-Mpl-del (c-Mpl alternative splicing isoform with a 24 amino acid deletion in the extracellular region) Y602F
0.18 | c-Mpl-del (c-Mpl alternative splicing isoform with a 24 amino acid deletion in the extracellular region) Y607F
